According to PMC5001929 (Cell reports, 2016):
Values belong to the binder of their own block, whether it stands above or below them.

Molecular target: T1, Gremlin-2 (UniProt O88273 22-168)
T1 sequence: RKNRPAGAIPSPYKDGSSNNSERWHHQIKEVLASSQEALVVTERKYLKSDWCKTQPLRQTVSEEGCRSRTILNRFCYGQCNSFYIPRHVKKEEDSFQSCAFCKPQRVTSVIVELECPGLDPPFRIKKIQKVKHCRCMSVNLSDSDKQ
Assay: SPR

Kd: 9 nM
B1: BMP2 (ligand, UniProt P12643 283-396, looked up)
chain: QAKHKQRKRLKSSCKRHPLYVDFSDVGWNDWIVAPPGYHAFYCHGECPFPLADHLNSTNHAIVQTLVNSVNSKIPKACCVPTELSAISMLYLDENEKVVLKNYQDMVVEGCGCR

Kd: 146 nM
B2: GDF5 (ligand, UniProt P43026 382-501, looked up)
chain: APLATRQGKRPSKNLKARCSRKALHVNFKDMGWDDWIIAPLEYEAFHCEGLCEFPLRSHLEPTNHAVIQTLMNSMDPESTPPTCCVPTRLSPISILFIDSANNVVYKQYEDMVVESCGCR
